pIC50: −log10 of the molar value.

For one test, the target named is HLA-A*02:01. The experiment in a line: IEDB peptide-MHC binding, purified MHC/competitive/radioactivity; ≥ and ≤ were set here for values at or beyond the usual limits of such assays. The note with it: source organism: Bordetella pertussis.
Turning to GKLPKPVTV, the pIC50 was 4.16.

A further test concerns the target HLA-B*07:02. Described as above. The note with it: source organism: Bordetella pertussis.
Consider FVRDGQSVI, for which the pIC50 was 5.25.
For the sequence KDYRDKDGG, the negative logarithm of the IC50 (pIC50) was 4.16.
On the same count and under the same terms, with KPAPQPGPQ the figure was 4.50; with PPRPVAAQV, 4.75.

The target in a further test is HLA-B*35:01. The test is described as above. The conditions noted are these: source organism: Bordetella pertussis.
In the case of FAILSSTTE, the pIC50 is 4.16.
On to KPAPTAPPM, for which the pIC50 is 7.72.
As for LPVRGVALV, the pIC50 is 4.16.

For a further test, the target named is HLA-B*44:03. Described as above. The note with it: source organism: Bordetella pertussis.
Take AEHGEVSIQ: the pIC50 was 5.54.
With AEVKVGYRA, the pIC50 was 5.63.
As for KEAATIVAA, the pIC50 is 4.82.
For SESHNFHAS, the pIC50 was 4.49.

The next test concerns the target HLA-B*53:01. The description is as above. The conditions noted are these: source organism: Bordetella pertussis.
Take DATFETYAL: the negative logarithm of the IC50 (pIC50) was 5.31.
Still for that read-out and setting: with EPQAELAVF the figure was 5.34; with ESYSESHNF, 5.20.
On the same count and under the same terms, with FAILSSTTE the figure was 4.33; with GAVPGGAVP, 4.16.
GGVPGGAVP: the pIC50 is 4.57.
Take LPVRGVALV: the negative-log IC50 (pIC50) was at most 4.11.

The target of another test is HLA-B*57:01. Described as above. The note with it: source organism: Bordetella pertussis.
On to VALASQARW, for which the pIC50 was 6.73.
For the sequence YLRQITPGW, the pIC50 was 5.81.

Values taken from the Immune Epitope Database (IEDB).
